Source: publication PMC12693531, “Cooperativity in Escherichia coli L-Threonine Dehydrogenase and Its Inhibition by an Antibacterial N-Pyridylpyrazolone Derivative” (International Journal of Molecular Sciences, 2025)
Counter-ions that a name gives are not always drawn.

T1: L-threonine dehydrogenase (TDH) (Escherichia coli, UniProt P07913)
T1 sequence (P07913 1-341): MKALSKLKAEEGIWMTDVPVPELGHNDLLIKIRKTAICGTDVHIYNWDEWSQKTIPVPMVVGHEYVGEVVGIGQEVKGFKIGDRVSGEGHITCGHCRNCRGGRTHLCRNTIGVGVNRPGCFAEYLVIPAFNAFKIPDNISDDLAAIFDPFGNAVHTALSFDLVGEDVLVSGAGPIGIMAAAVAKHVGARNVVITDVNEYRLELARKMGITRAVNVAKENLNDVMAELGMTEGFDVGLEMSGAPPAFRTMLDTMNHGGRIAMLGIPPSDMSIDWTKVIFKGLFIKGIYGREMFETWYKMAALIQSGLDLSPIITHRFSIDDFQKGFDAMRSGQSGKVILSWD


Tests used:
[1] = molecular target: T1, L-threonine dehydrogenase (TDH); experiment: fluorimetric NADH formation assay, titration at […] L-Thr and […] NAD+; also affinity chromatography from E. coli lysate on immobilized compound […]; assay type: biochemical
purified protein [2] = substrate: NC(=O)c1ccc[n+]([C@@H]2O[C@H](COP(=O)([O-])OP(=O)(O)OC[C@H]3O[C@@H](n4cnc5c(N)ncnc54)[C@H](O)[C@@H]3O)[C@@H](O)[C@H]2O)c1; experiment: purified protein; assay type: biochemical, Escherichia coli; conditions: Zn2+ non-cooperative binding; pH 8.4; 25.0 °C; varied: cofactor
purified protein [3] = substrate: C[C@@H](O)[C@H](N)C(=O)O; experiment: purified protein; assay type: biochemical, Escherichia coli; conditions: NAD+; Zn2+ cooperative binding of L-Thr; pH 8.4; 25.0 °C

Row | Molecule | EC50 [1] | K0.5 (purified protein [2]) | Vmax (purified protein [2]) | K0.5 (purified protein [3]) | Vmax (purified protein [3])
1 | NCCc1c[nH]n(-c2ccccn2)c1=O [compound 1, 4-(2-aminoethyl)-2-(pyridin-2-yl)-1,2-dihydro-3H-pyrazol-3-one dihydrochloride] | 50 ± 10 µM |  |  |  | 
2 | L-threonine dehydrogenase (TDH) (Escherichia coli K-12) (protein) MKALSKLKAEEGIWMTDVPVPELGHNDLLIKIRKTAICGTDVHIYNWDEWSQKTIPVPMVVGHEYVGEVVGIGQEVKGFKIGDRVSGEGHITCGHCRNCRGGRTHLCRNTIGVGVNRPGCFAEYLVIPAFNAFKIPDNISDDLAAIFDPFGNAVHTALSFDLVGEDVLVSGAGPIGIMAAAVAKHVGARNVVITDVNEYRLELARKMGITRAVNVAKENLNDVMAELGMTEGFDVGLEMSGAPPAFRTMLDTMNHGGRIAMLGIPPSDMSIDWTKVIFKGLFIKGIYGREMFETWYKMAALIQSGLDLSPIITHRFSIDDFQKGFDAMRSGQSGKVILSWD |  | 43 ± 3 µM | 3.42 µM/min | 280 ± 10 µM | 6 µM/min
